In US20250026827A1 (Alector, published 2025):

How the values were obtained:
[1] = molecular target: T1, human SIRPα domain 1 (D1) Fc fusion (human, UniProt P78324 32-149); test: Octet
T1 construct: also called human SIRPα D1-Fc; Human SIRPα Fc; not shown: C-terminal human IgG1 Fc

mouse SIRPα D1-Fc = molecular target: T2, mouse SIRPα D1-Fc (mouse, UniProt P97797 32-150, limits assumed); test: Octet
T2 construct: domain: D1
T2 sequence (looked up): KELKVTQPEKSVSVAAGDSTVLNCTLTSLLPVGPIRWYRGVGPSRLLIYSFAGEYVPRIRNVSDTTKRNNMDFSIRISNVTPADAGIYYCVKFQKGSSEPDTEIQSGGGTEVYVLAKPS

human SIRPα on cells [2] = molecular target: T3, human SIRPα on cells (human, UniProt P78324 31-504); test: flow cytometry;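 as to FOB: antibodies tested at 1 µg/ml for 30 min on ice against receptor-expressing cells, detected with a PE-labelled secondary antibody, read as mean fluorescence intensity relative to background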
T3 construct: Whole entry

[3] = molecular target: T4, mouse SIRPβ1 on CHO cells (mouse); test: flow cytometry;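 as to FOB: antibodies tested at 1 µg/ml for 30 min on ice against receptor-expressing cells, detected with a PE-labelled secondary antibody, read as mean fluorescence intensity relative to background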
T4 construct: Whole entry
T4 chain: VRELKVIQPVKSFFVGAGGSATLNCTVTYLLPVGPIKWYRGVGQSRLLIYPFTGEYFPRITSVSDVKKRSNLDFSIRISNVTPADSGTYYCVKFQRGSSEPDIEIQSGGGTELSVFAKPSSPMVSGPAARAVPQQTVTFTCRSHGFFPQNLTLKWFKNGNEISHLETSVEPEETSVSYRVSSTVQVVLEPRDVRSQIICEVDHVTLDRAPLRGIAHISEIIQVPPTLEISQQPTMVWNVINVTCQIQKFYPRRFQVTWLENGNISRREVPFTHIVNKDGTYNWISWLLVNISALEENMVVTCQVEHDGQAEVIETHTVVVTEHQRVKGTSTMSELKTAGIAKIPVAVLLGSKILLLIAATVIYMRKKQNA

mouse SIRPα on cells [4] = molecular target: T5, mouse SIRPα on cells (mouse, UniProt P97797 32-513); test: flow cytometry;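 as to FOB: antibodies tested at 1 µg/ml for 30 min on ice against receptor-expressing cells, detected with a PE-labelled secondary antibody, read as mean fluorescence intensity relative to background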
T5 construct: whole, on cells
T5 sequence (looked up): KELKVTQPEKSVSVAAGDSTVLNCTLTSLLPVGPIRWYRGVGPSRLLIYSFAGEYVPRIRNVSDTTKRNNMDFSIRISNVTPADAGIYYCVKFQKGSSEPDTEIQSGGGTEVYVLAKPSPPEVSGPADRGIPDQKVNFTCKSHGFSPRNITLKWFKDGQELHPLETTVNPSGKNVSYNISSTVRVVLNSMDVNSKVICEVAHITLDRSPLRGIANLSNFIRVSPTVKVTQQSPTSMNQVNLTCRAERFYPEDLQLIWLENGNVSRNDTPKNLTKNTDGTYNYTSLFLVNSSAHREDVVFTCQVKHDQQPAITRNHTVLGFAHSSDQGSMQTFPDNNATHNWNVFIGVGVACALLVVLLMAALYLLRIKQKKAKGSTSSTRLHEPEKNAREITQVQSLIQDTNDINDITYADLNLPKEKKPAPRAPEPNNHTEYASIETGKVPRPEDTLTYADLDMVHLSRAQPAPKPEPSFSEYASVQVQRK

[5] = molecular target: T6, human SIRPβ1 isoform 1 on cells (human, UniProt O00241 30-398); test: flow cytometry;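 also: antibodies tested at 1 µg/ml for 30 min on ice against receptor-expressing cells, detected with a PE-labelled secondary antibody, read as mean fluorescence intensity relative to background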
T6 construct: On CHO cells (low level), on BWZ/BW5147.G.1.4 cells (reporter cells co-express human DAP12) or on primary human myeloid cells; also called huSIRPβ1; BWZ-huSIRPβ1
T6 sequence (O00241 30-398): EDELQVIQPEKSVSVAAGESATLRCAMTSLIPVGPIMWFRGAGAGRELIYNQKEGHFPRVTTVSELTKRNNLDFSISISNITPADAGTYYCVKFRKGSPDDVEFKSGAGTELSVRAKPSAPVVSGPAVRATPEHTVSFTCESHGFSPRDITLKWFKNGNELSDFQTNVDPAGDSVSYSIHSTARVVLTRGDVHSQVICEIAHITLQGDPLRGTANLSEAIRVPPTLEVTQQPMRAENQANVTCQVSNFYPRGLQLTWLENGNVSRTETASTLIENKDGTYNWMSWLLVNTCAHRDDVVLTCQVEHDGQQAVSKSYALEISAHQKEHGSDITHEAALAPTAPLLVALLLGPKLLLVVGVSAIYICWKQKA
Method: (§1) Initial characterization of anti-SIRPβ1 antibodies involved determining their ability to bind cell lines expressing human or mouse SIRPβ1. Cells were harvested, plated at 10⁶/ml in a 96-well plate, washed, and incubated in 100 μl FACS buffer containing 1 μg/ml anti-SIRPβ1 antibody for 0.5 hour on ice. Cells were then washed twice and incubated in 100 μl FACS buffer containing 0.5 μg/ml PE-conjugated secondary antibody for 30 minutes on ice. Cells were washed twice in cold FACS buffer and acquired on a BD FACS Canto. Data analysis and calculation of mean fluorescence intensity (MFI) values or 00 positive cells was performed with FlowJo (TreeStar) software version 10.0.7.
(§2) As a negative control, the anti-SIRPβ1 antibodies were also screened for surface binding to CHO cells overexpressing recombinant mouse SIRPβ31. […] Given the high sequence similarity between receptors of the SIRPβ family, anti-SIRPβ1 antibodies were also screened for cross-reactivity to human and mouse SIRPα.

human SIRPα on cells [6] = molecular target: T3, human SIRPα on cells; test: flow cytometry; remark: listed apart in the source
Method: as §1, §2

[7] = molecular target: T4, mouse SIRPβ1 on CHO cells; test: flow cytometry
Method: as §1, §2

mouse SIRPα on cells [8] = molecular target: T5, mouse SIRPα on cells; test: flow cytometry; remark: listed apart in the source
Method: as §1, §2

[9] = molecular target: T7, human SIRPβ1 domain 1 (D1) Fc fusion (human, UniProt O00241 30-148); test: Octet, IgG avid
T7 construct: Made in HEK293/T cells with a heterologous signal peptide; also called Human SIRPβ1 D1-Fc; Human SIRPβ1-Fc; not shown: C-terminal human IgG1 Fc
T7 sequence (O00241 30-148 limits assumed): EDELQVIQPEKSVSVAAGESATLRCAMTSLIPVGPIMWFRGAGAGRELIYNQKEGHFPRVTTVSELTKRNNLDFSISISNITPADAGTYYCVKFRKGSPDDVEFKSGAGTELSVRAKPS

B1: SB-6 (antibody, V domains shown)
VH: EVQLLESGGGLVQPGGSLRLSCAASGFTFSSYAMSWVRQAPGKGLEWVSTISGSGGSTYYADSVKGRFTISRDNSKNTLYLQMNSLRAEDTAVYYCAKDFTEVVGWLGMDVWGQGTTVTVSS
VL: EIVLTQSPGTLSLSPGERATLSCRASQSVSSSYLAWYQQKPGQAPRLLIYGASSRATGIPDRFSGSGSGTDFTLTISRLEPEDFAVYYCQQSGHLPITFGGGTKVEIK
notes: IgG
B1: no binding (tested: 100 nM) [1]; no binding (tested: 100 nM) (mouse SIRPα D1-Fc); no binding (tested: 1 ug/ml) (human SIRPα on cells [2]). For the same binder, the binding result [3] was “no binding (tested: 1 ug/ml)”, the binding result (mouse SIRPα on cells [4]) was “no binding (tested: 1 ug/ml)” and the FOB [5] was 4.3 fold over background. The FOB (human SIRPα on cells [6]) was 1.2 fold over background, the FOB [7] was 1.2 fold over background and the FOB (mouse SIRPα on cells [8]) was 1 fold over background. For the same binder, the Kd [9] was 1.3 nM.

B2: SB-15 (antibody, V domains shown)
VH: QLQLQESGPGLVKPSETLSLTCTVSGGSISSNSYYWGWIRQPPGKGLEWIGSIYYSGSTYYNPSLKSRVTISVDTSKNQFSLKLSSVTAADTAVYYCAREVGAPPSYPFDIWGQGTMVTVSS
VL: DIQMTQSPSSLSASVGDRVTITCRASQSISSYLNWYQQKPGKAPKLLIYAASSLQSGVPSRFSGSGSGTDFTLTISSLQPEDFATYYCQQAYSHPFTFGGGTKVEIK
notes: IgG
B2: no binding (tested: 100 nM) [1]; no binding (tested: 100 nM) (mouse SIRPα D1-Fc); no binding (tested: 1 ug/ml) (human SIRPα on cells [2]). For the same binder, the binding result [3] was “no binding (tested: 1 ug/ml)”, the binding result (mouse SIRPα on cells [4]) was “no binding (tested: 1 ug/ml)” and the FOB [5] was 8 fold over background. For the same binder, the FOB (human SIRPα on cells [6]) was 2.2 fold over background, the FOB [7] was 1.3 fold over background and the FOB (mouse SIRPα on cells [8]) was 1.4 fold over background. It also gave a Kd [9] of 3.45 nM.

B3: SB-30 (antibody, V domains shown)
VH: QVQLQESGPGLVKPSQTLSLTCTVSGGSISSGGYYWSWIRQHPGKGLEWIGYIYYSGSTVYNPSLKSRVTISVDTSKNQFSLKLSSVTAADTAVYYCAREGPGYPSYFDPWGQGTLVTVSS
VL: EIVLTQSPGTLSLSPGERATLSCRASQSVSSSFLAWYQQKPGQAPRLLIYGASSRATGIPDRFSGSGSGTDFTLTISRLEPEDFAVYYCQQFLSSPWTFGGGTKVENQ
notes: IgG
B3: no binding (tested: 100 nM) (mouse SIRPα D1-Fc); no binding (tested: 1 ug/ml) [3]; no binding (tested: 1 ug/ml) (mouse SIRPα on cells [4]). It also gave an FOB [5] of 1.7 fold over background, an FOB (human SIRPα on cells [6]) of 2.1 fold over background and an FOB [7] of 1.4 fold over background. The FOB (mouse SIRPα on cells [8]) was 1.5 fold over background and the Kd [9] was 7.87 nM.

B4: SB-32 (antibody, V domains shown)
VH: QVQLQESGPGLVKPSETLSLTCTVSGGSISSYYWSWIRQPPGKGLEWIGYIYSSGSTNYNPSLKSRVTISVDTSKNQFSLKLSSVTAADTAVYYCARGDSSSGGLDLWGRGTLVTVSS
VL: not shown
notes: IgG
B4: no binding (tested: 100 nM) (mouse SIRPα D1-Fc); no binding (tested: 1 ug/ml) [3]; no binding (tested: 1 ug/ml) (mouse SIRPα on cells [4]). It also gave an FOB [5] of 1.5 fold over background, an FOB (human SIRPα on cells [6]) of 2.2 fold over background and an FOB [7] of 1.2 fold over background. For the same binder, the FOB (mouse SIRPα on cells [8]) was 1.2 fold over background and the Kd [9] was 7.13 nM.

B5: SB-39 (antibody, V domains shown)
VH: QVQLQESGPGLVKPSETLSLTCAVSGYSISSGYYWAWIRQPPGKGLEWIGSIYHSGSTYYNPSLKSRVTISVDTSKNQFSLKLSSVTAADTAVYYCARGGSNYGDYGRFDYWGQGTLVTVSS
VL: DIQMTQSPSSLSASVGDRVTITCRASQSISSYLNWYQQKPGKAPKLLIYGASSLQSGVPSRFSGSGSGTDFTLTISSLQPEDFATYYCQQSYDFPLTFGGGTKVEIK
notes: IgG
B5: no binding (tested: 100 nM) (mouse SIRPα D1-Fc); no binding (tested: 1 ug/ml) [3]; no binding (tested: 1 ug/ml) (mouse SIRPα on cells [4]). It also gave an FOB [5] of 5 fold over background, an FOB (human SIRPα on cells [6]) of 2 fold over background and an FOB [7] of 1.4 fold over background. The FOB (mouse SIRPα on cells [8]) was 1.1 fold over background and the Kd [9] was 21.4 nM.

B6: SB-41 (antibody, V domains shown)
VH: QLQLQESGPGLVKPSETLSLTCTVSGGSISSSSYYWGWIRQPPGKGLEWIGSIYYSGSTYYNPSLKSRVTISVDTSKNQFSLKLSSVTAADTAVYYCARVGQYPIYGMDVWGQGTTVTVSS
VL: DIQMTQSPSSLSASVGDRVTITCQASQDITNYLNWYQQKPGKAPKLLIYDASNLETGVPSRFSGSGSGTDFTFTISSLQPEDIATYYCQQADNFPYTFGGGTKVEIK
notes: IgG
B6: no binding (tested: 100 nM) (mouse SIRPα D1-Fc); no binding (tested: 1 ug/ml) [3]; no binding (tested: 1 ug/ml) (mouse SIRPα on cells [4]). It also gave an FOB [5] of 1.7 fold over background, an FOB (human SIRPα on cells [6]) of 2.2 fold over background and an FOB [7] of 1.3 fold over background. For the same binder, the FOB (mouse SIRPα on cells [8]) was 1.7 fold over background and the Kd [9] was 10.3 nM.

B7: SB-49 (antibody, V domains shown)
VH: QLQLQESGPGLVKPSETLSLTCTVSGGSISSSDYYWGWIRQPPGKGLEWIGSIYYSGSTYYNPSLKSRVTISVDTSKNQFSLKLSSVTAADTAVYYCARGPTGYKDKWRYYYGMDVWGQGTTVTVSS
VL: DIQMTQSPSSLSASVGDRVTITCQASQDITNYLNWYQQKPGKAPKLLIYDASNLETGVPSRFSGSGSGTDFTFTISSLQPEDIATYYCQQYFHPPLTFGGGTKVEIK
notes: IgG
B7: no binding (tested: 100 nM) (mouse SIRPα D1-Fc); no binding (tested: 1 ug/ml) [3]; no binding (tested: 1 ug/ml) (mouse SIRPα on cells [4]). It also gave an FOB [5] of 3.4 fold over background, an FOB (human SIRPα on cells [6]) of 2.7 fold over background and an FOB [7] of 1.2 fold over background. For the same binder, the FOB (mouse SIRPα on cells [8]) was 1.7 fold over background and the Kd [9] was 4.39 nM.

B8: SB-5 (antibody, V domains shown)
VH: not shown
VL: EIVLTQSPATLSLSPGERATITCRASQSVSSYLAWYQQKPGQAPRLLIYDASNRATGIPARFSGSGSGTDFTLTISSLEPEDFAVYYCQQRLFHPPTFGGGTKVEIK
notes: IgG
B8: no binding (tested: 100 nM) [1]; no binding (tested: 100 nM) (mouse SIRPα D1-Fc); no binding (tested: 1 ug/ml) (human SIRPα on cells [2]). The binding result [3] was “no binding (tested: 1 ug/ml)”, the binding result (mouse SIRPα on cells [4]) was “no binding (tested: 1 ug/ml)” and the FOB [5] was 1.6 fold over background. It also gave an FOB (human SIRPα on cells [6]) of 2 fold over background, an FOB [7] of 1.3 fold over background and an FOB (mouse SIRPα on cells [8]) of 1.5 fold over background.

B9: SB-10 (antibody, V domains shown)
VH: QVQLVQSGAEVKKPGSSVKVSCKASGGTFSSYAISWVRQAPGQGLEWMGGIIPIFGTANYAQKFQGRVTITADESTSTAYMELSSLRSEDTAVYYCARGVPRGDLGMDVWGQGTTVTVSS
VL: not shown
notes: IgG
B9: no binding (tested: 100 nM) [1]; no binding (tested: 100 nM) (mouse SIRPα D1-Fc); no binding (tested: 1 ug/ml) (human SIRPα on cells [2]). The binding result [3] was “no binding (tested: 1 ug/ml)”, the binding result (mouse SIRPα on cells [4]) was “no binding (tested: 1 ug/ml)” and the FOB [5] was 3.8 fold over background. The FOB (human SIRPα on cells [6]) was 2.4 fold over background, the FOB [7] was 1.4 fold over background and the FOB (mouse SIRPα on cells [8]) was 1 fold over background.

B10: SB-13 (antibody, V domains shown)
VH: QVQLQESGPGLVKPSETLSLTCTVSGGSISSYYWSWIRQPPGKGLEWIGSIYYSGSTNYNPSLKSRVTISVDTSKNQFSLKLSSVTAADTAVYYCARGDTSGGAYFDLWGRGTLVTVSS
VL: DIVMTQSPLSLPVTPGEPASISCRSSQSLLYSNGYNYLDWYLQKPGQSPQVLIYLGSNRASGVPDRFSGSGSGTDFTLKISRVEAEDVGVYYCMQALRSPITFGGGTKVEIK
notes: IgG
B10: no binding (tested: 100 nM) [1]; no binding (tested: 100 nM) (mouse SIRPα D1-Fc); no binding (tested: 1 ug/ml) (human SIRPα on cells [2]). The binding result [3] was “no binding (tested: 1 ug/ml)”, the binding result (mouse SIRPα on cells [4]) was “no binding (tested: 1 ug/ml)” and the FOB [5] was 1.9 fold over background. It also gave an FOB (human SIRPα on cells [6]) of 1.9 fold over background, an FOB [7] of 1.2 fold over background and an FOB (mouse SIRPα on cells [8]) of 0.9 fold over background.

B11: SB-14 (antibody, V domains shown)
VH: QVQLVQSGAEVKKPGSSVKVSCKASGGTFSSYAISWVRQAPGQGLEWMGGIIPIFGTASYAQKFQGRVTITADESTSTAYMELSSLRSEDTAVYYCARDRGGVGFDYWGQGTLVTVSS
VL: EIVMTQSPATLSLSPGERATLSCRASQSVSSYLAWYQQKPGQAPRLLIYDSSNRATGIPARFSGSGSGTDFTLTISSLEPEDFAVYYCQQFSYYPITFGGGTKVEIK
notes: IgG
B11: no binding (tested: 100 nM) [1]; no binding (tested: 100 nM) (mouse SIRPα D1-Fc); no binding (tested: 1 ug/ml) (human SIRPα on cells [2]). For the same binder, the binding result [3] was “no binding (tested: 1 ug/ml)”, the binding result (mouse SIRPα on cells [4]) was “no binding (tested: 1 ug/ml)” and the FOB [5] was 4.5 fold over background. It also gave an FOB (human SIRPα on cells [6]) of 2.5 fold over background, an FOB [7] of 1.3 fold over background and an FOB (mouse SIRPα on cells [8]) of 1.2 fold over background.
